For one experiment, the target named is T1, CTLA4 (UniProt P16410 36-161, limits assumed).
T1 sequence (looked up): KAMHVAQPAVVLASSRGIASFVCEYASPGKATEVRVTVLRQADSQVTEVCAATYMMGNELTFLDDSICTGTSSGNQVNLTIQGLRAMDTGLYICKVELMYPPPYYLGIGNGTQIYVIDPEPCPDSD
As to the kind of experiment: Octet; antigen immobilized, B-Body as analyte. An excerpt:
In each instance, the antigen is immobilized and the B-Body is the analyte.

Experiment [1] concerns the target T2, extracellular domain of human ROR1 (human, UniProt Q01973 30-406).
T2 construct: bought protein; biotinylated in the bivalent assay format; also called Acro Cat. No. RO1-H522y
As to the kind of experiment: BLI (Octet), IgG1, two-fold serial dilution 200-12.5 nM. An excerpt: To measure binding affinity in ROR binder discovery campaigns, the VL and VH domains identified in the phage screen described above were formatted into a bivalent monospecific native human full-length IgG1 architecture and immobilized to a biosensor on an Octet (Pall ForteBio) biolayer interferometer. Soluble ROR antigens, including the extracellular domains of ROR1 (Acro Cat. No. RO1-H522γ) and ROR2 (Acro Cat. No. R02-H52E5), as well as the individual ROR1 Frizzled (Acro Cat. No. RO1-H5222), Ig-like (Acro Cat. No. RO1-H5221), and Kringle (Acro Cat. No. RO1-H5223) domains, were then added to the system and binding measured.
The VH and VL sequences above were formatted into a bivalent monospecific native human full-length IgG1 architecture.

Experiment [2] concerns the target T2, extracellular domain of human ROR1. As to the kind of experiment: BLI, monovalent format, IgG on Fc biosensor.
Experiment [3] shares this target. Briefly: BLI (Octet QK384), monovalent format: antibody captured on Fc biosensor, untagged antigen as analyte.
For experiment [4] the target is unchanged. Briefly: BLI, monovalent format. How it is done: (§1) More specifically, monovalent binding affinity analysis was performed using the Octet^QK 384 (ForteBio) using Fc biosensors. Unlabeled B-body™ is first bound to the Fc biosensor at a concentration to yield approximately 1 nm response (typically 10 to 50 nM protein). The biosensors are then equilibrated in 10× Kinetic Buffer (ForteBio) to establish a baseline. The untagged monomer of each antigen is contacted with the antibody-coated sensors at concentrations ranging from 50 nm to 0.75 nM. The association response and dissociation were monitored and recorded. The resulting Kₒₙ and Koff was fit using the Octet analysis software.
(§2) Next, the binding of the antibody to ROR1 and ROR2 was assessed using the monovalent and bivalent BLI binding assessments as described in Example 24.

Experiment [5] addresses T3, extracellular domain of human ROR2 (human, UniProt Q01974 34-403).
T3 construct: bought protein; biotinylated in the bivalent assay format; also called Acro Cat. No. RO2-H52E5
Briefly: BLI, monovalent format. How it is done: as §1, §2

The target in experiment [6] is T2, extracellular domain of human ROR1. Briefly: BLI (Octet QK384), monovalent format: antibody captured on Fc biosensor, untagged antigen as analyte. How it is done: as §1, §2
This is another data set of the same source.

Experiment [7] deals with T3, extracellular domain of human ROR2. The description is as above. How it is done:
as §1, §2

In experiment [8] the target is T2, extracellular domain of human ROR1. Briefly: BLI (Octet QK384), bivalent format: biotinylated antigen on streptavidin biosensor, 1x2 B-body as analyte. How it is done:
(§3) Bivalent binding analysis was performed using the Octet^QK 384 (ForteBio) using streptavidin biosensors. Biotinylated antigen was first bound to the streptavidin biosensor at a concentration to yield approximately 1 nm response (typically 10 to 50 nM biotinylated protein). The biosensors were then equilibrated in 10× Kinetic Buffer (ForteBio) to establish a baseline. The 1×2 B-body™ was contacted with the antigen-coated sensors at concentrations ranging from 50 nm to 0.75 nM. The association response and dissociation were monitored and recorded. The resulting Kₒₙ and Koff was fit using the Octet analysis software.

Experiment [9] shares this target. As to the kind of experiment: BLI, bivalent format, biotinylated antigen on streptavidin biosensor, B-body 50 nM to 0.75 nM. How it is done: as §3
Experiment [10] concerns the target T4, cynomolgus CD3 delta and epsilon heterodimer (cynomolgus, UniProt Q95LI5 22-117; Q95LI8 22-105).
T4 construct: untagged monomer of the antigen in solution
As to the kind of experiment: BLI, B-body on Fc biosensor, antigen monomer 50 nM to 0.75 nM. How it is done:
as §1

Experiment [11] addresses T2, extracellular domain of human ROR1. Briefly: BLI (Octet QK384), monovalent format: B-body captured on Fc biosensor, untagged antigen as analyte. How it is done: as §1
(§4) Monovalent binding analysis was performed as described above and the antibody was captured with an Fc sensor and contacted with the indicated antigen for the association phase followed by a dissociation phase in buffer only.

In experiment [12] the target is T4, cynomolgus CD3 delta and epsilon …. The description is as above. How it is done: as §1
The target of experiment [13] is T2, extracellular domain of human ROR1. As to the kind of experiment: BLI, monovalent format, B-body on Fc biosensor, soluble antigen. How it is done:
as §1, §4

The target of the next experiment is T5, CD3 on Jurkat T cells (human, UniProt P07766 23-207; P04234 22-171).
T5 construct: also called human CD3; copies: 1 + 1
As to the kind of experiment: flow cytometry on Jurkat T cells, fluorescently labeled secondary antibody, MFI against antibody concentration. An excerpt:
(§5) In this Example, the binding to human and cynomolgus CD3 was further characterized by assessing cell binding to Jurkat T cells, a Jurkat CD3 knock-out cell line, or a cynomolgus T cell line.

Experiment [14] deals with T6, CD3 on a cynomolgus T cell line (cynomolgus).
T6 construct: whole, on cells; also called cynomolgus CD3
Briefly: flow cytometry on a cynomolgus T cell line, fluorescently labeled secondary antibody, MFI against antibody concentration.
Excerpt: as §5

Numbering of substitutions follows the chain as printed. In names and notes the source's numbering stands.

T2 sequence (Q01973 30-406 limits assumed): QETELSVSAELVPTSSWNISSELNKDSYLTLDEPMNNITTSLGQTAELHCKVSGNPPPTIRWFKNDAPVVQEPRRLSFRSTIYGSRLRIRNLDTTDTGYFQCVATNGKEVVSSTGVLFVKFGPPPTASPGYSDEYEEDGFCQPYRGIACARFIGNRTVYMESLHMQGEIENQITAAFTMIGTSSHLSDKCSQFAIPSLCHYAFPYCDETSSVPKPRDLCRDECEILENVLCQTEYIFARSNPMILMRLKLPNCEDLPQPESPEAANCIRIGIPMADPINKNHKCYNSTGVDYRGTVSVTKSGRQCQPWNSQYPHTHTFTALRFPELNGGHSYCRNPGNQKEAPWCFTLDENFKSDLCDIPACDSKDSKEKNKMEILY
T4 sequence (Q95LI5 22-117, stated change not applied, chain 1 of 2): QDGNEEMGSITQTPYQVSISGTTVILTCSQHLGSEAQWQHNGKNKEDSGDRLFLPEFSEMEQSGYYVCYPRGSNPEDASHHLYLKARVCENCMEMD
T4 sequence (Q95LI8 22-105, stated change not applied, chain 2 of 2): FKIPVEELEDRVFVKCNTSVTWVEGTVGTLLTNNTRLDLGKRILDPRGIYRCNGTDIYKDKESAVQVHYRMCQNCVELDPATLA
T3 sequence (Q01974 34-403 limits assumed): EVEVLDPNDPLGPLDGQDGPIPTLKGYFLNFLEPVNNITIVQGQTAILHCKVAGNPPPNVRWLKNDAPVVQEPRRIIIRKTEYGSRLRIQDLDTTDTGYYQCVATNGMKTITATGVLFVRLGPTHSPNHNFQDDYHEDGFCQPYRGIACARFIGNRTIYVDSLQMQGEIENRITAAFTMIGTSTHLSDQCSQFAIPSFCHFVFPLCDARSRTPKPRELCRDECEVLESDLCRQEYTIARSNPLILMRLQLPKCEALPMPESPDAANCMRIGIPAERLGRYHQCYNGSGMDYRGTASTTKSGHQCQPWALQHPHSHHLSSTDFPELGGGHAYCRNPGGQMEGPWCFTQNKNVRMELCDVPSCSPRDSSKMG
T5 sequence (P07766 23-207 limits assumed, chain 1 of 2): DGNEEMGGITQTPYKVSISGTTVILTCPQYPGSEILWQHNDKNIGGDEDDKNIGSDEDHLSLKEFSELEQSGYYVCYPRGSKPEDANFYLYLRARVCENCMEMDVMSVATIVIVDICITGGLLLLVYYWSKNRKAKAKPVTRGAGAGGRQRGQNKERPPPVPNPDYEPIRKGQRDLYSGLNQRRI
T5 sequence (P04234 22-171 limits assumed, chain 2 of 2): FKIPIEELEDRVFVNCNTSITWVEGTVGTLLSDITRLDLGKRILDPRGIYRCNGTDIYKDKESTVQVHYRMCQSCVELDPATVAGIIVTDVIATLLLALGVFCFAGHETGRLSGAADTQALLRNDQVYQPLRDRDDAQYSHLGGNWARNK
T6 sequence (Q95LI5 22-198, chain 1 of 3): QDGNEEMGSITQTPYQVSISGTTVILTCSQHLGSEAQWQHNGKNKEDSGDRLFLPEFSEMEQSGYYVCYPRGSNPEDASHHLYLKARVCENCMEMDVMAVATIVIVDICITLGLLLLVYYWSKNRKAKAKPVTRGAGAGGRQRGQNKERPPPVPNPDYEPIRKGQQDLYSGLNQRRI
T6 sequence (Q95LI8 22-171, chain 2 of 3, further chain): as the sequence (P04234 22-171 limits assumed, chain 2 of 2) above, with I5V, N15K, I20V, S32T, D33N, I34N, T64A, S74N, V83L, H141R counted along it
T6 sequence (Q95LI7 23-181, chain 3 of 3, further chain): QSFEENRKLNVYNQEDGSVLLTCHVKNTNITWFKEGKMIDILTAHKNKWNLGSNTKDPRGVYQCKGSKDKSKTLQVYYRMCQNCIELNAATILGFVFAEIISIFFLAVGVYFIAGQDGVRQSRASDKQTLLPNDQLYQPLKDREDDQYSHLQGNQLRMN

B1: bivalent bispecific B-Body “BC1” (bispecific antibody)
chain 1: not shown
chain 2: EVQLVESGGGLVQPGGSLRLSCAASGFTFSDYDIHWVRQAPGKGLEWVGDITPYDGTTNYADSVKGRFTISADTSKNTAYLQMNSLRAEDTAVYYCARLVGEIATGFDYWGQGTLVTVSSASPREPQVYTDPPSRDELTKNQVSLTCLVKGFYPSDIAVEWESNGQPENNYKTTPPVLDSDGSFFLYSKLTVDKSRWQQGNVFSCSVMHEALHNHYTQKSLSLSGEC
chain 3: not shown
chain 4: QVQLVESGGGVVQPGRSLRLDCKASGITFSNSGMHWVRQAPGKGLEWVAVIWYDGSKRYYADSVKGRFTISRDNSKNTLFLQMNSLRAEDTAVYYCATNDDYWGQGTLVTVSSASTKGPSVFPLAPSSKSTSGGTAALGCLVKDYFPEPVTVSWNSGALTSGVHTFPAVLQSSGLYSLSSVVTVPSSSLGTQTYICNVNHKPSNTKVDKKVEPPKSC
notes: A:F site for Antigen A, H:L site nivolumab variable domains (PD1)
Regarding B1, the binding result in the experiment with CTLA4 was “no binding”.

B2: I2A-27 IgG1 (antibody, V domains shown)
VH: EVQLVESGGGLVQPGGSLRLSCAASGFTFKGYYIHWVRQAPGKGLEWVAAIYPYGGSTDYADSVKGRFTISADTSKNTAYLQMNSLRAEDTAVYYCARVYIYGVFDYWGQGTLVTVSS
VL: DIQMTQSPSSLSASVGDRVTITCRASQSVSSAVAWYQQKPGKAPKLLIYSASSLYSGVPSRFSGSRSGTDFTLTISSLQPEDFATYYCQQYYSSPRTFGQGTKVEIKR
notes: bivalent monospecific native human full-length IgG1; the Domain F / Domain A entries end with AS / RT of the junction to the constant domain; also called clone I2-A27; I2-A27 IgG antibody
Take B2: in experiment [1], the Kd is 4.1 nM, the koff was 0.00185 s⁻¹ and the kon stood at 511000 M⁻¹ s⁻¹. The molecule further registered a Kd in [2] of 2.8 nM. In experiment [3], this molecule showed a koff of 0.0026 s⁻¹ and a kon of 940000 M⁻¹ s⁻¹.

B3: I2A-10 D54E Y55Q IgG (antibody, V domains shown)
VH: EVQLVESGGGLVQPGGSLRLSCAASGFTFSSYFIHWVRQAPGKGLEWVAGIYPSEGYTSYADSVKGRFTISADTSKNTAYLQMNSLRAEDTAVYYCARYYVSGMDYWGQGTLVTVSS
VL: B2 VL with Y55Q, S93Y, S94Y, R96G
notes: bivalent monospecific IgG; the Domain F / Domain A entries end with AS / RT of the junction to the constant domain; also called I2-A10 D54E Y55Q IgG antibody
On to B3, for which the Kd in [4] was 0.7 nM; in [5], < 0.001 nM. Further, the koff in experiment [6] is 0.00039 s⁻¹; in experiment [7], < 1e-07 s⁻¹. Besides, the kon worked out at 550000 M⁻¹ s⁻¹ in [6] and 140000 M⁻¹ s⁻¹ in experiment [7].

B4: I2-A27 1×2 B-body™ bispecific antibody (ROR1xCD3) (bispecific antibody)
chain 1: DIQMTQSPSSLSASVGDRVTITCRASQSVSSAVAWYQQKPGKAPKLLIYSASSLYSGVPSRFSGSRSGTDFTLTISSLQPEDFATYYCQQYYSSPRTFGQGTKVEIKRTPREPQVYTLPPSRDELTKNQVSLKCLVKGFYPSDIAVEWESNGQPENNYKTTPPVLDSDGSFFLYSKLTVDKSRWQQGNVFSCSVMHEALHNHYTQKSLSLSKSCDKTHTCPPCPAPEAAGGPSVFLFPPKPKDTLMISRTPEVTCVVVDVSHEDPEVKFNWYVDGVEVHNAKTKPREEQYNSTYRVVSVLTVLHQDWLNGKEYKCKVSNKALKAPIEKTISKAKGQPREPQVCTLPPSREEMTKNQVSLSCAVKGFYPSDIAVEWESNGQPENNYKTTPPVLDSDGSFFLVSKLTVDKSRWQQGNVFSCSVMHEALHNHYTQKSLSLSPGK
chain 2: EVQLVESGGGLVQPGGSLRLSCAASGFTFKGYYIHWVRQAPGKGLEWVAAIYPYGGSTDYADSVKGRFTISADTSKNTAYLQMNSLRAEDTAVYYCARVYIYGVFDYWGQGTLVTVSSASPREPQVYTDPPSRDELTKNQVSLTCLVKGFYPSDIAVEWESNGQPENNYKTTPPVLDSDGSFFLYSKLTVDKSRWQQGNVFSCSVMHEALHNHYTQKSLSLSGEC
chain 3: not shown
chain 4: EVQLVESGGGLVQPGGSLRLSCAASGFTFNTYAMNWVRQAPGKGLEWVARIRSKYNNYATYYADSVKGRFSISRDDSKNTAYLQMNSLRAEDTAVYYCVRHGNFGNSYVSWFAYWGQGTLVTVSSASTKGPSVFPLAPSSKSTSGGTAALGCLVKDYFPEPVTVSWNSGALTSGVHTFPAVLQSSGLYSLSSVVTVPSSSLGTQTYICNVNHKPSNTKVDKKVEPPKSC
notes: two ROR sites, one SP34-89 CD3 site; chain 5 is the same as chain 2; also called I2A-27 BC1 1×2
For B4, the koff in experiment [8] was determined as 3.5e-05 s⁻¹; in [11], 0.0026 s⁻¹; in experiment [12], 0.00032 s⁻¹. For the same molecule, the kon in [8] stood at 490000 M⁻¹ s⁻¹; in experiment [11], 680000 M⁻¹ s⁻¹; in [12] it was 110000 M⁻¹ s⁻¹. Also, the results for the Kd in experiment [9], in experiment [10] and in experiment [13] were 0.71 nM, 3 nM and 3.8 nM, respectively.

B5: SP34-89 humanized antibody (antibody, V domains shown)
VH: EVQLVESGGGLVQPGGSLRLSCAASGFTFNTYAMNWVRQAPGKGLEWVARIRSKYNNYATYYADSVKGRFSISRDDSKNTAYLQMNSLRAEDTAVYYCVRHGNFGNSYVSWFAYWGQGTLVTV
VL: QAVVTQEPSLTVSPGGTVTLTCRSSTGAVTTSNYANWVQQKPGQAPRGLIGGTNKRAPWTPARFSGSLLGGKAALTITGAQAEDEADYYCALWYSNLWVFGGGTKLTVL
Consider B5, for which the results for the “EC50 (read off the curve)” value (with CD3 on Jurkat T cells; in experiment [14]) were ~0.6 nM and ~0.7 nM, respectively.
